± gives the standard error. This sample holds only a part of the variants without activity.
B1: glmS ribozyme (parent)
chain: AUAAAAGCGCCAGAACUACAGAAAUGUAGUUGACGAGGAGGAGGUUUAUCGAAUUUUCGGCGGAUGCCUCCAAA

What was measured:
Conditions in all cases: with glucosamine-6-phosphate
glucosamine-6-phosphate [1] = variants of: B1; assay: self-cleavage kobs at 640 uM GlcN6P; higher = faster cleavage; RNA array
Outline: (§1)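 The measurements used barcoded ribozyme variants on sequenced MiSeq chips, transcribed in situ by E. coli RNA polymerase and tracked at 37 °C with a hybridised Cy3 probe. Glucosamine-6-phosphate, 40 μM to 10 mM in HEPES/KCl/Mg(OAc)2 buffer, was flowed in while tiles were imaged over ~14 h. Baseline-normalised signals, also normalised to non-cleaving reference variants, gave per-tile medians that were fit to one- or two-exponential decays for kobs. kcat and KM resulted from weighted Michaelis–Menten fits across concentrations.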

glucosamine-6-phosphate [2] = variants of: B1; assay: self-cleavage kobs at 2500 uM GlcN6P; higher = faster cleavage; RNA array
Outline: as §1

glucosamine-6-phosphate [3] = variants of: B1; assay: self-cleavage kobs at 10000 uM GlcN6P; higher = faster cleavage; RNA array
Outline: as §1

Variant	self-cleavage kobs at 640 uM GlcN6P (glucosamine-6-phosphate [1]) [s⁻¹]	self-cleavage kobs at 2500 uM GlcN6P (glucosamine-6-phosphate [2]) [s⁻¹]	self-cleavage kobs at 10000 uM GlcN6P (glucosamine-6-phosphate [3]) [s⁻¹]
C50U C58A C68U	8.66e-05 ± 2.6e-05		
U54A U55G A64C	3.35e-05 ± 1.7e-05	5.81e-05 ± 1.7e-05	
G38U U69A	0.000186 ± 9e-05		
G37A A42C C61A	< 1e-05		
U47A G62A	< 1e-05	< 1e-05	
G66U C68G C71A	5.91e-05 ± 2.3e-05		
A42G A53U C67G	0.00199 ± 0.00049		0.00458 ± 0.0017
G43C C61U G62A	< 1e-05		
G40C A48G U56G G59U A64C C70G	< 1e-05		
G40A G41C A42C C70U	< 1e-05		
A6C C11U G21U G32C G41U G43U U65G C68U U69G		< 1e-05	
G37A U56G A64U	< 1e-05	< 1e-05	
A52G U56G C67A U69C	9.46e-05 ± 1.8e-05	0.000192 ± 5.3e-05	0.000295 ± 8.2e-05
A36U G51U U56G G59A G66A	< 1e-05		
A36U G43U	< 1e-05	< 1e-05	
C50G G63C C67U	0.000103 ± 4.4e-05		
G43C U45G G63C U69G	< 1e-05		
U54A U55G C67U	0.000411 ± 0.00015	0.000903 ± 0.00028	
U45A U57A	0.000159 ± 4.5e-05	0.000423 ± 7.9e-05	
A48C C50G C67U C68U	0.000151 ± 3.3e-05	0.000255 ± 8.7e-05	
G38C U46C G59U U65C C67A	< 1e-05	< 1e-05	
A39U A52G U54G U57C	3.84e-05 ± 1.7e-05	0.00016 ± 4.9e-05	
A39C A42U G62C A64U	< 1e-05		
G38C C58A C71U	< 1e-05		

Variant	self-cleavage kobs at 640 uM GlcN6P (glucosamine-6-phosphate [1]) [s⁻¹]	self-cleavage kobs at 2500 uM GlcN6P (glucosamine-6-phosphate [2]) [s⁻¹]	self-cleavage kobs at 10000 uM GlcN6P (glucosamine-6-phosphate [3]) [s⁻¹]
G59U G62A C70G	5.34e-05 ± 1.5e-05		
G44U G51A C68U	< 1e-05	< 1e-05	
G37U C70G C71A	5.1e-05 ± 1.4e-05		
G43C U46G U56G	< 1e-05		
U49C U65A	< 1e-05		< 1e-05
G43A G62U C67A	< 1e-05	< 1e-05	
U49A U57C	< 1e-05		
A52C A53G G60C U65C	< 1e-05		
G41U A42U C61A	< 1e-05	< 1e-05	
U45G U47G C71U	0.000978 ± 0.00031		
G37A A64U C71U	< 1e-05	< 1e-05	
U45G C70G	0.000176 ± 7.2e-05	4.73e-05 ± 1.8e-05	0.000258 ± 6.7e-05
A42U G60C C61U	< 1e-05		
C50G A52U G63C	< 1e-05	< 1e-05	
A39G G60U C67G	< 1e-05	< 1e-05	< 1e-05
A39G G51A	< 1e-05	< 1e-05	
A48G U54C C67U	< 1e-05		
G44U U47G A52G A64G	< 1e-05		
G51U G66A	< 1e-05	< 1e-05	
U57A G62A	< 1e-05		
A36U U65C C70G	0.000173 ± 7.9e-05		
A39G A48U U54G	8.65e-05 ± 1.9e-05	0.000287 ± 7.3e-05	
U54C G60C C67G	< 1e-05		
A48C U49G C50A	< 1e-05		

Variant	self-cleavage kobs at 640 uM GlcN6P (glucosamine-6-phosphate [1]) [s⁻¹]	self-cleavage kobs at 2500 uM GlcN6P (glucosamine-6-phosphate [2]) [s⁻¹]	self-cleavage kobs at 10000 uM GlcN6P (glucosamine-6-phosphate [3]) [s⁻¹]
G38U C50G G62U	0.000714 ± 0.00023	6.98e-05 ± 2e-05	
G44A A53U U54G C61U	< 1e-05		
A39G C50G C67U	0.000571 ± 0.00018	0.000299 ± 0.00012	
G38C C50G C67G	6.94e-05 ± 1.3e-05	0.000141 ± 4.2e-05	
G37A G63A C71A	< 1e-05	< 1e-05	
U45C G63U C67U	< 1e-05		
C50U G59U U69A C70G	0.000556 ± 0.00018	7.32e-05 ± 2.9e-05	
A48G U49C G66A	< 1e-05		
C50A G62C A64G	< 1e-05		
U2G U46G A53U		0.00369 ± 0.0011	
U57G A64U U69G	0.000149 ± 5.9e-05	6.09e-05 ± 1.5e-05	
G40A A52G C71A	0.000146 ± 2.8e-05	0.000203 ± 7.7e-05	
G44U G62A C70U	< 1e-05		
G41C U47G G59U	< 1e-05	< 1e-05	
A39U A48U A53C	< 1e-05		
A6C A15U G43U U54G		< 1e-05	
G37U G38U C68A	0.00155 ± 0.00045		
G59U G62A U65A	< 1e-05	< 1e-05	
G62A G63C C70A C71U	5.14e-05 ± 2.3e-05		
U55A C58U C61A C67A	8.67e-05 ± 2.1e-05		
G40C G44C C61U	< 1e-05	< 1e-05	
G51A G63U C70G	7.13e-05 ± 2.7e-05		
